Data as given in patent US20260242732A1.
Like-named read-outs stand apart in the source and are kept apart here.

How the values were obtained:
[1] = target: recombinant human P-selectin (human) (UniProt P16109)
[2] = target: recombinant human P-selectin (human) (UniProt P16109); remark: listed apart in the source

Sequence of UniProt P16109 (P16109 42-771 limits assumed): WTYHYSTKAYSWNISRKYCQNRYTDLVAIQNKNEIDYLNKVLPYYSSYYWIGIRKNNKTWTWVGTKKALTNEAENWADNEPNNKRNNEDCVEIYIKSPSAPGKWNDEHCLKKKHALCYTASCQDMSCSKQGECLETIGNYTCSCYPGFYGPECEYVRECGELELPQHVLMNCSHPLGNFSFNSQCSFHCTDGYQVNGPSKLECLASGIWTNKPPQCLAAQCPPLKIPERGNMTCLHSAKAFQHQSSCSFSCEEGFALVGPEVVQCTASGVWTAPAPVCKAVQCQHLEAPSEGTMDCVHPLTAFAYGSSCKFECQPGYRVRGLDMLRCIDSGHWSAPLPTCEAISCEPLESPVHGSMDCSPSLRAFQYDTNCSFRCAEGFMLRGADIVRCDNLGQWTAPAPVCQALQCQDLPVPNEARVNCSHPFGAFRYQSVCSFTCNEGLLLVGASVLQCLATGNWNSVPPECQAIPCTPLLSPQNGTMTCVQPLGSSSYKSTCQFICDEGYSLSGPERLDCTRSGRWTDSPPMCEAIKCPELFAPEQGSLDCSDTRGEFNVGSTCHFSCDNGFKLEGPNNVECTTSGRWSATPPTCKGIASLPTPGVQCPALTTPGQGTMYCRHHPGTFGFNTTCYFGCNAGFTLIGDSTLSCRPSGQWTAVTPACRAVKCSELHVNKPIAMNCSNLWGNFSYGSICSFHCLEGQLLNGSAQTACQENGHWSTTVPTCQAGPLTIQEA

Row | Freq. of mCherry+ (BFP+ cells) at 1 ng/uL rhp-selectin [1] [%] | Freq. of mCherry+ (BFP+ cells) at 10 ng/uL rhp-selectin [1] [%] | Freq. of mCherry+ (BFP+ cells) at 25 ng/uL rhp-selectin [1] [%] | Freq. of mCherry+ (BFP+ cells) at 50 ng/uL rhp-selectin [1] [%] | Freq. of mCherry+ (BFP+ cells) at 100 ng/uL rhp-selectin [1] [%] | Freq. of mCherry+ (BFP+ cells) at 1 ng/uL rhp-selectin [2] [%] | Freq. of mCherry+ (BFP+ cells) at 10 ng/uL rhp-selectin [2] [%] | Freq. of mCherry+ (BFP+ cells) at 25 ng/uL rhp-selectin [2] [%] | Freq. of mCherry+ (BFP+ cells) at 50 ng/uL rhp-selectin [2] [%] | Freq. of mCherry+ (BFP+ cells) at 100 ng/uL rhp-selectin [2] [%] | Binder
1 | 2.1 | 13.2 | 15.6 | 15.8 | 12.1 |  |  |  |  |  | LH (Crizanlizumab) scFv synNotch receptor (receptor, part only; not given: Myc tag, Notch core, Gal4, part only) chain, part: DIQMTQSPSSLSASVGDRVTITCKASQSVDYDGHSYMNWYQQKPGKAPKLLIYAASNLESGVPSRFSGSGSGTDFTLTISSLQPEDFATYYCQQSDENPLTFGGGTKVEIKRGGGGSGGGGSGGGGSQVQLVQSGAEVKKPGASVKVSCKVSGYTFTSYDINWVRQAPGKGLEWMGWIYPGDGSIKYNEKFKGRVTMTVDKSTDTAYMELSSLRSEDTAVYYCARRGEYGNYEGAMDYWGQGTLVTVSS
2 |  |  |  |  |  | 16.2 | 33 | 32.2 | 25.4 | 18.4 | HL (Crizanlizumab) scFv synNotch receptor (receptor, part only; not given: Myc tag, Notch core, Gal4, part only) chain, part: QVQLVQSGAEVKKPGASVKVSCKVSGYTFTSYDINWVRQAPGKGLEWMGWIYPGDGSIKYNEKFKGRVTMTVDKSTDTAYMELSSLRSEDTAVYYCARRGEYGNYEGAMDYWGQGTLVTVSSGGGGSGGGGSGGGGSDIQMTQSPSSLSASVGDRVTITCKASQSVDYDGHSYMNWYQQKPGKAPKLLIYAASNLESGVPSRFSGSGSGTDFTLTISSLQPEDFATYYCQQSDENPLTFGGGTKVEIKR
